For 4 molecules, binding result and EC50 results are on record in patent US20180214569A1 (Regeneron, published 2018).

Assay [1] addresses T1, LukD (GS) (Staphylococcus aureus, UniProt O54082 27-327).
T1 sequence: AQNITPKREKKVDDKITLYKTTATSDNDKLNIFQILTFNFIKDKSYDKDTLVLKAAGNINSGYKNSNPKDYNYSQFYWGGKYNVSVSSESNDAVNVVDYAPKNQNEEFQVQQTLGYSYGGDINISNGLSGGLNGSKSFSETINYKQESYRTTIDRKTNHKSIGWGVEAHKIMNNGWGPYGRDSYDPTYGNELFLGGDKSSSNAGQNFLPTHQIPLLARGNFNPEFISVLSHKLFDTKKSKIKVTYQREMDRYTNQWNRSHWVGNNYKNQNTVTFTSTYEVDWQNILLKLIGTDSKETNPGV
The experiment in a line: ELISA, plate coated with toxin component. In general terms: ELISA stands for enzyme-linked immunosorbent assay.
Experimental: (§1) MaxiSorp microtiter plates were coated overnight with 10 μg/mL of individual F-components of S. aureus bicomponent toxins per well. Recombinant toxin components were either obtained from IBT BioServices (Gaithersburg, Md.) or generated by GenScript (Piscataway Township, N.J.). […] Wells were washed 3 times and then incubated with 100 ng/mL anti-human HRP secondary antibody per well for one hour at 25° C. 100 μL of SuperSignal ELISA Pico Chemiluminescent Substrate, (ThermoFisher Scientific) was added to the wells and signal was detected (Victor X3 plate reader, Perkin Elmer). Luminescence values were analyzed by a three-parameter logistic equation over an 11-point response curve (GraphPad Prism). Isotype-matched irrelevant control antibody and S. aureus delta toxin were included as controls.

Assay [2] deals with T2, HlgB (GS) (Staphylococcus aureus, UniProt P0A077 26-325).
T2 sequence: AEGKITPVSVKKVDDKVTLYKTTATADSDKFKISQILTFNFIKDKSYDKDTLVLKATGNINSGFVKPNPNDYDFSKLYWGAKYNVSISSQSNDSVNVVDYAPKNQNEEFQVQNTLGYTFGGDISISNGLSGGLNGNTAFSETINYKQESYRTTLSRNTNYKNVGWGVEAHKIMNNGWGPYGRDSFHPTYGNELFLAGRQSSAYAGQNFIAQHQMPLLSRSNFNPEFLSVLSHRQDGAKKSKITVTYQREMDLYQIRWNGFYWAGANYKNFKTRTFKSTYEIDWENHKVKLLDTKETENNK
The experiment in a line: ELISA, plate coated with toxin component.
Experimental: as §1

For assay [3], the target named is S. aureus delta toxin (Staphylococcus aureus, UniProt P0C1V1 1-26). The experiment in a line: ELISA, plate coated with toxin component.
Experimental: as §1
In assay [4] the target is T3, LukF (GS) (Staphylococcus aureus).
T3 construct: also called LukF-PV; F-component LukF from GenScript
The experiment in a line: ELISA, plate coated with toxin component, chemiluminescence.
Experimental: as §1

Assay [5] deals with T4, LukF (IBT) (Staphylococcus aureus).
T4 construct: also called LukF-PV; F-component LukF from IBT BioServices
The description is as above.
Experimental: as §1

Assay [6] addresses T1, LukD (GS). The assay is described as above.
Experimental: as §1
In assay [7] the target is T2, HlgB (GS). The assay is described as above.
Experimental: as §1

B1: H1H15376P (antibody, V domains shown)
VH: QVQLQQSGPGLVKPSQTLSLTCAISGDSVASNNAAWNWIRQSPSRGLEWLGRTYYRSKWFNDYVESVKSRISFNPDTSKNQFSLQLNSVTPEDTAVYYCARSYYDFWSGYSENNYYFYGMDVWGQGTTVTVSS
VL: DIQMTQSPSSLSASVGDRVSITCRTSQGIRNDLGWYQQKPGKAPKRLIYAASSLQSGVPSRFSGSGSGTEFTLTISSLQPEDFATYYCLQHNIYPPTFGQGTKVEIK
For B1, the binding result in assay [1], in assay [2] and in assay [3] was “no binding (tested: titration 50 uM-100 pM)” each time.

B2: H1H15418P2 (antibody, V domains shown)
VH: QVQLVESGGGLVRPGGSLRLSCEASGFTFNEHYMSWIRQAPGKGLEWVAFISSGGSIIYYADSVKGRFTISRDSAKNSLYLQMNSLRPEDTAIYYCAREPFGGIIVFDYWGQGTLVTVSS
VL: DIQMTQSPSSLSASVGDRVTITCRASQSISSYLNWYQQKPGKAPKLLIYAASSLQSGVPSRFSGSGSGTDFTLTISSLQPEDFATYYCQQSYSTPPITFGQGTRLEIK
For the molecule B2, the binding result in assay [1], in assay [2] and in assay [3] was “no binding (tested: titration 50 uM-100 pM)” each time.

B3: H1H15420P2 (antibody, V domains shown)
VH: QVQLQESGLGLVKPSETLSLTCTVSGDSIGTYYWSWIRQPPGKGLEWIAYIYDSRHSNSNPSLKSRVTTSVDMSKNQFSLQLKSVTAADTAVYFCARDWGTWKPEGAFDIWGQGTMVTVSS
VL: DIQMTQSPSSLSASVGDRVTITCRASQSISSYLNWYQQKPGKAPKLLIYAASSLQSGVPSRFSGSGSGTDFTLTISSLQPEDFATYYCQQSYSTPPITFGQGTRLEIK
With B3, the binding result in assay [1], in assay [2] and in assay [3] was “no binding (tested: titration 50 uM-100 pM)” in each case.

B4: H1H15381P (antibody, V domains shown)
VH: EVQLVESGGGLVQPGGSLRLSCAASGFTFSRYDMHWVRQVTGKGLEWVSVIGTAGDTYYPDSVKGRFTISRENAKNSLSLQMNSLRAGDTAVYYCTRSYNWNFPFGYWGQGTLVTVSS
VL: DIQMTQSPSTLSASVGDRVTITCRASQSISSWLAWYQQKPGKAPRLLIYEASSLETGVPSRFSGSGSGTEFTLTISSLQPDDFATYYCQQYNRYPWTFGQGTKVEIK
Regarding B4, the binding result in assay [3] is “no binding (tested: titration 50 uM-100 pM)”. In addition, the half-maximal effective concentration (EC50) worked out at 66.7 nM in assay [4], 165 nM in assay [5], 59.6 nM in assay [6] and 102 nM in assay [7].

One may read the EC50 as the concentration that produces a half-maximal response.
